Results taken from patent US20200199241A1 (Chugai, published 2020).

T1: human FcγRIIa(R) (human, UniProt P12318 36-217)
T1 construct: also called FcgRIIaR; FcγRIIa type R
T1 chain: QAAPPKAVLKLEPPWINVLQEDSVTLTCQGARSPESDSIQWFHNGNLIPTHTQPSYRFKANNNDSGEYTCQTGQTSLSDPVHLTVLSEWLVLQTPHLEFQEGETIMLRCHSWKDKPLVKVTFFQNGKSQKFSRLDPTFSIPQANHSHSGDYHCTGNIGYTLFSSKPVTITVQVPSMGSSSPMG

T2: human FcγRIIa(H) (human, UniProt P12318 36-217)
T2 construct: also called FcgRIIaH; FcγRIIa type H
T2 sequence: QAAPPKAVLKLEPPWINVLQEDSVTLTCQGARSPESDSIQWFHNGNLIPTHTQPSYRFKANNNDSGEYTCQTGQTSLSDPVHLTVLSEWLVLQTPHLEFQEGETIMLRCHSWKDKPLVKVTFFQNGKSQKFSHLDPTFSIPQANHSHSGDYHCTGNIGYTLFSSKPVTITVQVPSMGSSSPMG

T3: human FcγRIIb (human, UniProt P31994 43-217, limits assumed)
T3 construct: also called FcgRIIb
T3 sequence: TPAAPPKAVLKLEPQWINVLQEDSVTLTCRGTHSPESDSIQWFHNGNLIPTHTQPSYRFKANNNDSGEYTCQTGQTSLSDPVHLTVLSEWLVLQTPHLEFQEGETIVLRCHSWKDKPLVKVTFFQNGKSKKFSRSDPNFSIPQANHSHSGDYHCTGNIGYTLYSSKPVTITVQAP

T4: human FcγRIIa(H) (human, UniProt P12318 36-217)
T4 construct: also called FcgRIIaH; hFcgRIIa(H)
T4 sequence: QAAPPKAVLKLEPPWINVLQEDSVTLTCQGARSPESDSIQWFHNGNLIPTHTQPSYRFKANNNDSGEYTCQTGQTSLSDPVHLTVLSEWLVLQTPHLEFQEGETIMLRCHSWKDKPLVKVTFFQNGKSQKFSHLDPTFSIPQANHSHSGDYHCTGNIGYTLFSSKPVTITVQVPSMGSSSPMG

T5: human FcγRIIa(R) (human, UniProt P12318 36-217)
T5 construct: also called FcgRIIaR; hFcgRIIa(R)
T5 chain: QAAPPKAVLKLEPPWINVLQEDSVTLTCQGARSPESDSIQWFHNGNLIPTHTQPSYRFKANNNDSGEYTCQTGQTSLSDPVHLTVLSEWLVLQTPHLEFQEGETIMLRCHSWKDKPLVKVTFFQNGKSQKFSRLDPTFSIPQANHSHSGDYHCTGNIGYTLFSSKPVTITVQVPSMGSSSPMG


Experiments:
human FcγRIIIa(F) = target: T6, human FcγRIIIa(F) (human, UniProt P08637 17-208, limits assumed); assay: SPR (Biacore);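 further: antibody variants captured on sensor chip, Fcγ receptor flowed over at 25 °C, bound receptor normalized to amount of captured antibody, expressed relative to reference antibody set as 100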
T6 construct: also called FcgRIIIaF; allotype F158
T6 sequence (P08637 other isoform, or with tags, fused parts or gaps limits assumed): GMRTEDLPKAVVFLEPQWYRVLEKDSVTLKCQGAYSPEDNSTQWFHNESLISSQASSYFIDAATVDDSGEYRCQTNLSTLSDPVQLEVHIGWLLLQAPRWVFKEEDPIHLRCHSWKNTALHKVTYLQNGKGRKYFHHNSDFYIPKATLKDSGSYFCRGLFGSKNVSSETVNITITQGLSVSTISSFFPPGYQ
Procedure: (§1) Interaction between each modified antibody and Fcγ receptor prepared in the manner described above was analyzed using the BIACORE™ T100 surface plasmon resonance system (GE Healthcare), BIACORE™ T200 surface plasmon resonance system (GE Healthcare), BIACORE™ A100 surface plasmon resonance system or BIACORE™ 4000 surface plasmon resonance system. HBS-EP+ (GE Healthcare) was used for the running buffer, and measurements were carried out at 25° C. The chips used were chips in which antigen peptides, Protein A (Thermo Scientific), Protein A/G (Thermo Scientific) or Protein L (ACTIGEN® protein (Alltech or BioVision) were immobilized on the Series S Sensor Chip CMS (GE Healthcare) or Series S Sensor Chip CM4 (GE Healthcare) by amine coupling, or chips in which preliminarily biotinylated antigen peptides were allowed to interact and then immobilized on the Series S Sensor Chip SA (certified) (GE Healthcare). The target antibodies were captured on these sensor chips, Fcγ receptor diluted with the running buffer was allowed to interact, followed by measurement of the amount of bound antibody. The amounts bound were compared between antibodies. However, since the amount of Fcγ receptor bound depends on the amount of captured antibody, the values used for comparison were first corrected by dividing the amount of Fcγ receptor bound by the captured amount of each antibody. Through reaction with 10 mM glycine-HCl at pH 1.5, the sensor chips were regenerated by washing off antibody captured on the sensor chips and used repeatedly.
(§2) Binding strength was evaluated according to the following method based on the results of analyzing the interaction with each FcγR. […] That value was then further multiplied by 100, and the resulting value was used as an indicator of relative binding activity to each FcγR.

human FcγRIIa(R) [1] = target: T1, human FcγRIIa(R); assay: SPR (Biacore);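 further: antibody variants captured on sensor chip, Fcγ receptor flowed over at 25 °C, bound receptor normalized to amount of captured antibody, expressed relative to reference antibody set as 100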
Procedure: as §1, §2

human FcγRIa [2] = target: T7, human FcγRIa (human, UniProt P12314 16-292, limits assumed); assay: SPR (Biacore);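 further: antibody variants captured on sensor chip, Fcγ receptor flowed over at 25 °C, bound receptor normalized to amount of captured antibody, expressed relative to reference antibody set as 100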
T7 construct: also called FcgRIa; FcγRI (CD64)
T7 sequence (P12314 16-292 limits assumed): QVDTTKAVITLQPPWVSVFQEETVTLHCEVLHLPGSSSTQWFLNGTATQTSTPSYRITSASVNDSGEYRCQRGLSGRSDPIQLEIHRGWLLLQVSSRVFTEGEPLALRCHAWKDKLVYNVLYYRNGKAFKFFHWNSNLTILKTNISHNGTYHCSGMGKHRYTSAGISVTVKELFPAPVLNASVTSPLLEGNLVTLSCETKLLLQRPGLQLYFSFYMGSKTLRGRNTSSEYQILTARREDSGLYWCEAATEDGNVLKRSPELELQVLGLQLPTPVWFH
Procedure: as §1, §2

human FcγRIIa(H) [3] = target: T2, human FcγRIIa(H); assay: SPR (Biacore);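 further: antibody variants captured on sensor chip, Fcγ receptor flowed over at 25 °C, bound receptor normalized to amount of captured antibody, expressed relative to reference antibody set as 100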
Procedure: as §1, §2

human FcγRIIb = target: T3, human FcγRIIb; assay: SPR (Biacore)
Procedure: as §1, §2

human FcγRIIa(H) [4] = target: T4, human FcγRIIa(H); assay: SPR, captured antibody;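 further: antibody captured on a sensor chip, Fcγ receptor flowed over at 25 °C, receptor binding normalized to the captured antibody amount and expressed relative to the reference antibody ×100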
Procedure: as §1, §2

human FcγRIIa(R) [5] = target: T5, human FcγRIIa(R); assay: SPR, captured antibody;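 further: antibody captured on a sensor chip, Fcγ receptor flowed over at 25 °C, receptor binding normalized to the captured antibody amount and expressed relative to the reference antibody ×100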
Procedure: as §1, §2

human FcγRIa [6] = target: T8, human FcγRIa (human, UniProt P12314 16-292, limits assumed); assay: SPR, captured antibody;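 further: antibody captured on a sensor chip, Fcγ receptor flowed over at 25 °C, receptor binding normalized to the captured antibody amount and expressed relative to the reference antibody ×100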
T8 construct: also called FcgRIa; hFcgRIa
T8 sequence (P12314 16-292 limits assumed): as above
Procedure: as §1, §2

Row | Binder | relative binding activity (human FcγRIIIa(F)) | relative binding activity (human FcγRIIa(R) [1]) | relative binding activity (human FcγRIa [2]) | relative binding activity (human FcγRIIa(H) [3]) | relative binding activity (human FcγRIIb) | relative binding activity (human FcγRIIa(H) [4]) | relative binding activity (human FcγRIIa(R) [5]) | relative binding activity (human FcγRIa [6])
1 | GpH7-B3 variant V266E/GpL16-k0 (antibody, human IgG1, copies: 2 + 2) heavy: not shown light: DIVMTQSPLSLPVTPGEPASISCQASESLVHSNRNTYLHWYLQKPGQSPQLLIYKVSNRFSGVPDRFSGSGSGTDFTLKISRVEAEDVGVYYCSQNTHVPPTFGQGTKVEIE | -1 % of GpH7-B3/GpL16-k0 | -3 % of GpH7-B3/GpL16-k0 | 69 % of GpH7-B3/GpL16-k0 | 0 % of GpH7-B3/GpL16-k0 | 0 % of GpH7-B3/GpL16-k0 |  |  | 
2 | GpH7-B3 variant G237K/GpL16-k0 (antibody, human IgG1, copies: 2 + 2) heavy: not shown light: DIVMTQSPLSLPVTPGEPASISCQASESLVHSNRNTYLHWYLQKPGQSPQLLIYKVSNRFSGVPDRFSGSGSGTDFTLKISRVEAEDVGVYYCSQNTHVPPTFGQGTKVEIE | -1 % of GpH7-B3/GpL16-k0 | 0 % of GpH7-B3/GpL16-k0 | 2 % of GpH7-B3/GpL16-k0 | 0 % of GpH7-B3/GpL16-k0 | -1 % of GpH7-B3/GpL16-k0 |  |  | 
3 | GpH7-B3 variant V266T/GpL16-k0 (antibody, human IgG1, copies: 2 + 2) heavy: not shown light: DIVMTQSPLSLPVTPGEPASISCQASESLVHSNRNTYLHWYLQKPGQSPQLLIYKVSNRFSGVPDRFSGSGSGTDFTLKISRVEAEDVGVYYCSQNTHVPPTFGQGTKVEIE | 12 % of GpH7-B3/GpL16-k0 | 66 % of GpH7-B3/GpL16-k0 | 89 % of GpH7-B3/GpL16-k0 | 18 % of GpH7-B3/GpL16-k0 | 52 % of GpH7-B3/GpL16-k0 |  |  | 
4 | GpH7-B3 variant V266P/GpL16-k0 (antibody, human IgG1, copies: 2 + 2) heavy: not shown light: DIVMTQSPLSLPVTPGEPASISCQASESLVHSNRNTYLHWYLQKPGQSPQLLIYKVSNRFSGVPDRFSGSGSGTDFTLKISRVEAEDVGVYYCSQNTHVPPTFGQGTKVEIE | -1 % of GpH7-B3/GpL16-k0 | -5 % of GpH7-B3/GpL16-k0 | 1 % of GpH7-B3/GpL16-k0 | -1 % of GpH7-B3/GpL16-k0 | -3 % of GpH7-B3/GpL16-k0 |  |  | 
5 | GpH7-B3 variant V266H/GpL16-k0 (antibody, human IgG1, copies: 2 + 2) heavy: not shown light: DIVMTQSPLSLPVTPGEPASISCQASESLVHSNRNTYLHWYLQKPGQSPQLLIYKVSNRFSGVPDRFSGSGSGTDFTLKISRVEAEDVGVYYCSQNTHVPPTFGQGTKVEIE | 0 % of GpH7-B3/GpL16-k0 | 22 % of GpH7-B3/GpL16-k0 | 62 % of GpH7-B3/GpL16-k0 | 2 % of GpH7-B3/GpL16-k0 | 14 % of GpH7-B3/GpL16-k0 |  |  | 
6 | GpH7-B3 variant V266R/GpL16-k0 (antibody, human IgG1, copies: 2 + 2) heavy: not shown light: DIVMTQSPLSLPVTPGEPASISCQASESLVHSNRNTYLHWYLQKPGQSPQLLIYKVSNRFSGVPDRFSGSGSGTDFTLKISRVEAEDVGVYYCSQNTHVPPTFGQGTKVEIE | -1 % of GpH7-B3/GpL16-k0 | -6 % of GpH7-B3/GpL16-k0 | 5 % of GpH7-B3/GpL16-k0 | -1 % of GpH7-B3/GpL16-k0 | -2 % of GpH7-B3/GpL16-k0 |  |  | 
7 | GpH7-B3 S298W/GpL16-k0 (antibody, human IgG1, B3 variant; copies: 2 + 2) heavy: not shown light: DIVMTQSPLSLPVTPGEPASISCQASESLVHSNRNTYLHWYLQKPGQSPQLLIYKVSNRFSGVPDRFSGSGSGTDFTLKISRVEAEDVGVYYCSQNTHVPPTFGQGTKVEIE |  |  |  |  |  | 17 % of GpH7-B3/GpL16-k0 | 19 % of GpH7-B3/GpL16-k0 | 69 % of GpH7-B3/GpL16-k0
8 | GpH7-B3 variant V266N/GpL16-k0 (antibody, human IgG1, copies: 2 + 2) heavy: not shown light: DIVMTQSPLSLPVTPGEPASISCQASESLVHSNRNTYLHWYLQKPGQSPQLLIYKVSNRFSGVPDRFSGSGSGTDFTLKISRVEAEDVGVYYCSQNTHVPPTFGQGTKVEIE | 5 % of GpH7-B3/GpL16-k0 | 58 % of GpH7-B3/GpL16-k0 | 84 % of GpH7-B3/GpL16-k0 | 32 % of GpH7-B3/GpL16-k0 | 40 % of GpH7-B3/GpL16-k0 |  |  | 
9 | GpH7-B3 N325I/GpL16-k0 (antibody, human IgG1, B3 variant; copies: 2 + 2) heavy: not shown light: DIVMTQSPLSLPVTPGEPASISCQASESLVHSNRNTYLHWYLQKPGQSPQLLIYKVSNRFSGVPDRFSGSGSGTDFTLKISRVEAEDVGVYYCSQNTHVPPTFGQGTKVEIE |  |  |  |  |  | 8 % of GpH7-B3/GpL16-k0 | 76 % of GpH7-B3/GpL16-k0 | 94 % of GpH7-B3/GpL16-k0
10 | GpH7-B3 variant V266Q/GpL16-k0 (antibody, human IgG1, copies: 2 + 2) heavy: not shown light: DIVMTQSPLSLPVTPGEPASISCQASESLVHSNRNTYLHWYLQKPGQSPQLLIYKVSNRFSGVPDRFSGSGSGTDFTLKISRVEAEDVGVYYCSQNTHVPPTFGQGTKVEIE | 3 % of GpH7-B3/GpL16-k0 | 47 % of GpH7-B3/GpL16-k0 | 88 % of GpH7-B3/GpL16-k0 | 11 % of GpH7-B3/GpL16-k0 | 34 % of GpH7-B3/GpL16-k0 |  |  | 
11 | GpH7-B3 variant V266G/GpL16-k0 (antibody, human IgG1, copies: 2 + 2) heavy: not shown light: DIVMTQSPLSLPVTPGEPASISCQASESLVHSNRNTYLHWYLQKPGQSPQLLIYKVSNRFSGVPDRFSGSGSGTDFTLKISRVEAEDVGVYYCSQNTHVPPTFGQGTKVEIE | 3 % of GpH7-B3/GpL16-k0 | 27 % of GpH7-B3/GpL16-k0 | 86 % of GpH7-B3/GpL16-k0 | 10 % of GpH7-B3/GpL16-k0 | 22 % of GpH7-B3/GpL16-k0 |  |  | 
12 | GpH7-B3 variant V266W/GpL16-k0 (antibody, human IgG1, copies: 2 + 2) heavy: not shown light: DIVMTQSPLSLPVTPGEPASISCQASESLVHSNRNTYLHWYLQKPGQSPQLLIYKVSNRFSGVPDRFSGSGSGTDFTLKISRVEAEDVGVYYCSQNTHVPPTFGQGTKVEIE | -1 % of GpH7-B3/GpL16-k0 | 37 % of GpH7-B3/GpL16-k0 | 78 % of GpH7-B3/GpL16-k0 | 0 % of GpH7-B3/GpL16-k0 | 26 % of GpH7-B3/GpL16-k0 |  |  | 
13 | GpH7-B3 variant V2668/GpL16-k0 (antibody, human IgG1, copies: 2 + 2) heavy: not shown light: DIVMTQSPLSLPVTPGEPASISCQASESLVHSNRNTYLHWYLQKPGQSPQLLIYKVSNRFSGVPDRFSGSGSGTDFTLKISRVEAEDVGVYYCSQNTHVPPTFGQGTKVEIE | 3 % of GpH7-B3/GpL16-k0 | 26 % of GpH7-B3/GpL16-k0 | 79 % of GpH7-B3/GpL16-k0 | 5 % of GpH7-B3/GpL16-k0 | 18 % of GpH7-B3/GpL16-k0 |  |  | 
14 | GpH7-B3 variant V266K/GpL16-k0 (antibody, human IgG1, copies: 2 + 2) heavy: not shown light: DIVMTQSPLSLPVTPGEPASISCQASESLVHSNRNTYLHWYLQKPGQSPQLLIYKVSNRFSGVPDRFSGSGSGTDFTLKISRVEAEDVGVYYCSQNTHVPPTFGQGTKVEIE | -1 % of GpH7-B3/GpL16-k0 | 0 % of GpH7-B3/GpL16-k0 | 15 % of GpH7-B3/GpL16-k0 | -1 % of GpH7-B3/GpL16-k0 | -1 % of GpH7-B3/GpL16-k0 |  |  | 
15 | GpH7-B3 variant V266Y/GpL16-k0 (antibody, human IgG1, copies: 2 + 2) heavy: not shown light: DIVMTQSPLSLPVTPGEPASISCQASESLVHSNRNTYLHWYLQKPGQSPQLLIYKVSNRFSGVPDRFSGSGSGTDFTLKISRVEAEDVGVYYCSQNTHVPPTFGQGTKVEIE | 0 % of GpH7-B3/GpL16-k0 | 18 % of GpH7-B3/GpL16-k0 | 75 % of GpH7-B3/GpL16-k0 | 2 % of GpH7-B3/GpL16-k0 | 15 % of GpH7-B3/GpL16-k0 |  |  | 
